One variant from IntAct's records for PubMed 19766572 can be followed below.

B1: Peroxiredoxin-1 (Gallus gallus (Chicken)), P0CB50 (parent)
chain: MSSGKAFIGKPAPDFTATAVMPDGQFKDIKLSDYRGKYVVFFFYPLDFTFVCPTEIIAYSDRADEFKKINCEIIGASVDSHFCHLAWINTPKKQGGLGTMKIPLVSDTKRVIAKDYGVLKEDEGIAYRGLFIIDEKGILRQITINDLPVGRSVDETLRLVQAFQFTDKHGEVCPAGWKPGSDTIKPDVQKSKEYFSKQK
partner: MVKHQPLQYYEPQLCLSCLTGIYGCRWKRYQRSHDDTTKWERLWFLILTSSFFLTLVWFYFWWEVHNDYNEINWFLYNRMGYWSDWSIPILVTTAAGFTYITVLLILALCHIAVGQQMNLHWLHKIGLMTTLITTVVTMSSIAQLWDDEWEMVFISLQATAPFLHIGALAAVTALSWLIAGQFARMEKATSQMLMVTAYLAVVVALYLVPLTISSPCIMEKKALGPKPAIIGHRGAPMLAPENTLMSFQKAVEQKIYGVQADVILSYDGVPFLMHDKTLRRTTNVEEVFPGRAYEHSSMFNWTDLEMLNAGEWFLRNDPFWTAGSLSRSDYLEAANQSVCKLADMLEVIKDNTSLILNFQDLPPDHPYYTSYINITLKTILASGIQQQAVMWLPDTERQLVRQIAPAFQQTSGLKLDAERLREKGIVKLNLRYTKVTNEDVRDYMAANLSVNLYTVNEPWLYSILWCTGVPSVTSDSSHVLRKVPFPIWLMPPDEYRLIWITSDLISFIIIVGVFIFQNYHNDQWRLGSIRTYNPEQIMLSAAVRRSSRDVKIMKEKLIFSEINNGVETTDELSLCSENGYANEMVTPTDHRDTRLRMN

In the assay the parent is B1. The settings on record: with gdpd5_chick GDPD5, Q3KTM2.
With C52S;C173S, the “effect of a mutation on the interaction” value is “disrupting interaction”.
